The target in this assay is T1, histidine kinase EnvZ from Escherichia coli (Escherichia coli) (UniProt P0AEJ4).
T1 sequence (P0AEJ4 whole entry, looked up): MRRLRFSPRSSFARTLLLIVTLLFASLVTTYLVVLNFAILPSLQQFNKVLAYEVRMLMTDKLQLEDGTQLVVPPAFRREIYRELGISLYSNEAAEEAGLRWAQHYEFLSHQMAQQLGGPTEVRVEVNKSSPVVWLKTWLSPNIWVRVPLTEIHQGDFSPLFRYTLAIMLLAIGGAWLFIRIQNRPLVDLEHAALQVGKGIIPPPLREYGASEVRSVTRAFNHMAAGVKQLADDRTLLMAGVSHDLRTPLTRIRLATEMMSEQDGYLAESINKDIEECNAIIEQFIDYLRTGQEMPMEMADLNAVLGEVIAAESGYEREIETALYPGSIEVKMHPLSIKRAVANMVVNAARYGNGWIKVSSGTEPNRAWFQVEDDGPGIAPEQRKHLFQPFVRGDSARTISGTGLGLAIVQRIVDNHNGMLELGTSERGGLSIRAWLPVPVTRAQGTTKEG

B1: Spo0F M55L (natural protein)
chain: MMNEKILIVDDQYGIRILLNEVFNKEGYQTFQAANGLQALDIVTKERPDLVLLDLKIPGMDGIEILKRMKVIDENIRVIIMTAYGELDMIQESKELGALTHFAKPFDIDEIRDAVKKYLPLKSN
For B1, the in vitro phosphotransfer rate from EnvZ, ratio v (mutant) / v (w.t.) was 1.

B2: Spo0F I108L (natural protein)
chain: MMNEKILIVDDQYGIRILLNEVFNKEGYQTFQAANGLQALDIVTKERPDLVLLDMKIPGMDGIEILKRMKVIDENIRVIIMTAYGELDMIQESKELGALTHFAKPFDLDEIRDAVKKYLPLKSN
B2: the in vitro phosphotransfer rate from EnvZ, ratio v (mutant) / v (w.t.) was found to be 1.

The record behind these values is PMC6101370.
